According to patent US20220227830A1, “QD DOSING OF GIP RECEPTOR AGONIST PEPTIDE COMPOUNDS AND USES THEREOF” (Takeda Pharmaceutical Company Limited, priority 2020, published 2022):
Starred links: 1 amine or outer side, 2 acyl side, 3 side chain; linkers in the order of their positions; H or OH if unused. Non-standard residues stand in square brackets, D forms with d. Groups on a side chain read outwards from the residue. No end group written: not given here. *: point of attachment. 2OEGgEgE‑C15DA = 2OEGgEgE-C15 diacid linker-lipid on the Lys side chain, O=C(O)CCCCCCCCCCCCCC(=O)N[C@@H](CCC(=O)N[C@@H](CCC(=O)NCCOCCOCC(=O)NCCOCCOCC(=O)*)C(=O)O)C(=O)O; C15 diacid = O=C(O)CCCCCCCCCCCCCC(=O)*; γGlu = O=C(O)[C@H](CCC(=O)[*:2])N[*:1]; NMeY = CN[C@@H](Cc1ccc(O)cc1)C(=O)O; AEEA = NCCOCCOCC(=O)O; Aib = CC(C)(N)C(=O)O

T1: full-length human GIPR with an N-terminal FLAG tag (human, UniProt P48546 22-466)
T1 sequence (looked up): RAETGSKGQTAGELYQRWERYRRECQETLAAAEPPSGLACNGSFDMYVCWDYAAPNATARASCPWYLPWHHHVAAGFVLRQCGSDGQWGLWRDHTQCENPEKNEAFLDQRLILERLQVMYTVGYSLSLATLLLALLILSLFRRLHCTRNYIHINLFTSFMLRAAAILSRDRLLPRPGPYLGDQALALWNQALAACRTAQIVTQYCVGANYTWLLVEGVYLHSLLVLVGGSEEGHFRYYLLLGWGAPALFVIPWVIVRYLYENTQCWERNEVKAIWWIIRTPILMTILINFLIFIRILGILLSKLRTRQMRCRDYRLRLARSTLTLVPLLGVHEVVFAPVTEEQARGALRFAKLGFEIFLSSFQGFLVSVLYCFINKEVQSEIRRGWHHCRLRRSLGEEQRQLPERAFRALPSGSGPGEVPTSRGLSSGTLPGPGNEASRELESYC

B1: Compound 14 (peptide)
peptide: [NMeY][Aib]EGTFISDYSIALDR[Aib]AQ[Aib]K([AEEA-AEEA-γGlu-γGlu-C15 diacid])FVNWLLAQR-NH2
modifications: not fully specified (N-terminus); also: C-term NH2 in mods, C_TER column prints OH
B2: Compound 50 (peptide)
peptide: Y[Aib]EGTFISDYSIAKDR[Aib]AQ[Aib]NFVNWLLAQRPSSGAPPPS-OH
modifications: not fully specified (residues 1, 14); also: Me-Tyr methyl position not given here
B3: Compound 142 (peptide)
peptide: YXEGTFISDYSIXXDRXAQXDFVNWLLAQRG
modifications: Me-Tyr1; Aib 2,13,17,20; Km14 = Lys(GGGGG-C15 diacid) (Table 3 prints the linker 'GS'); C-term OH
B4: Compound 86 (peptide)
peptide: [NMeY][Aib]EGTFISDYSIALDR[Aib]AQ[Aib]K([AEEA-γGlu-γGlu-C15 diacid])FVNWLLAQR-NH2
modifications: N-terminus assumed
SMILES: CC[C@H](C)[C@H](NC(=O)[C@H](CO)NC(=O)[C@H](Cc1ccc(O)cc1)NC(=O)[C@H](CC(=O)O)NC(=O)[C@H](CO)NC(=O)[C@@H](NC(=O)[C@H](Cc1ccccc1)NC(=O)[C@@H](NC(=O)CNC(=O)[C@H](CCC(=O)O)NC(=O)C(C)(C)NC(=O)[C@H](Cc1ccc(O)cc1)NC)[C@@H](C)O)[C@@H](C)CC)C(=O)N[C@@H](C)C(=O)N[C@@H](CC(C)C)C(=O)N[C@@H](CC(=O)O)C(=O)N[C@@H](CCCNC(=N)N)C(=O)NC(C)(C)C(=O)N[C@@H](C)C(=O)N[C@@H](CCC(N)=O)C(=O)NC(C)(C)C(=O)N[C@@H](CCCCNC(=O)COCCOCCNC(=O)CC[C@H](NC(=O)CC[C@H](NC(=O)CCCCCCCCCCCCCC(=O)O)C(=O)O)C(=O)O)C(=O)N[C@@H](Cc1ccccc1)C(=O)N[C@H](C(=O)N[C@@H](CC(N)=O)C(=O)N[C@@H](Cc1c[nH]c2ccccc12)C(=O)N[C@@H](CC(C)C)C(=O)N[C@@H](CC(C)C)C(=O)N[C@@H](C)C(=O)N[C@@H](CCC(N)=O)C(=O)N[C@@H](CCCNC(=N)N)C(N)=O)C(C)C
B5: Compound 111 (peptide)
peptide: [NMeY][Aib]EGTFISDYSI[Aib]LDR[Aib]K(2OEGgEgE‑C15DA)Q[Aib]NFVNWLLAQSPSSGAPPPS-NH2
modifications: N-terminus assumed
SMILES: CC[C@H](C)[C@H](NC(=O)[C@H](Cc1ccccc1)NC(=O)[C@@H](NC(=O)CNC(=O)[C@H](CCC(=O)O)NC(=O)C(C)(C)NC(=O)[C@H](Cc1ccc(O)cc1)NC)[C@@H](C)O)C(=O)N[C@@H](CO)C(=O)N[C@@H](CC(=O)O)C(=O)N[C@@H](Cc1ccc(O)cc1)C(=O)N[C@@H](CO)C(=O)N[C@H](C(=O)NC(C)(C)C(=O)N[C@@H](CC(C)C)C(=O)N[C@@H](CC(=O)O)C(=O)N[C@@H](CCCNC(=N)N)C(=O)NC(C)(C)C(=O)N[C@@H](CCCCNC(=O)COCCOCCNC(=O)COCCOCCNC(=O)CC[C@H](NC(=O)CC[C@H](NC(=O)CCCCCCCCCCCCCC(=O)O)C(=O)O)C(=O)O)C(=O)N[C@@H](CCC(N)=O)C(=O)NC(C)(C)C(=O)N[C@@H](CC(N)=O)C(=O)N[C@@H](Cc1ccccc1)C(=O)N[C@H](C(=O)N[C@@H](CC(N)=O)C(=O)N[C@@H](Cc1c[nH]c2ccccc12)C(=O)N[C@@H](CC(C)C)C(=O)N[C@@H](CC(C)C)C(=O)N[C@@H](C)C(=O)N[C@@H](CCC(N)=O)C(=O)N[C@@H](CO)C(=O)N1CCC[C@H]1C(=O)N[C@@H](CO)C(=O)N[C@@H](CO)C(=O)NCC(=O)N[C@@H](C)C(=O)N1CCC[C@H]1C(=O)N1CCC[C@H]1C(=O)N1CCC[C@H]1C(=O)N[C@@H](CO)C(N)=O)C(C)C)[C@@H](C)CC

Molecular target: T1, full-length human GIPR with an …
Experiment: cell-based or functional assay

Binder | Human GIPR cAMP, HEK293T EC50 [pM]
B1 | 0.4
Me-Y[Aib]EGTFISDYSIALDR[Aib]K([AEEA-AEEA-γGlu-γGlu-C15 diacid])Q[Aib]NFVNWLLAQSPSSGAPPPS-NH2 [Compound 17] | 0.4
B2 | 0.4
[NMeY][Aib]EGTFISDYSIALDRKAQ[Aib]NFVNWLLAQSPSSGAPPPS-OH (not fully specified (residue 17)) [Compound 54] | 0.1
[NMeY][Aib]EGTFISDYSIAK([G5-γGlu-C15 diacid])DR[Aib]AQ[Aib]DFVNWLLAQSPSSGAPPPS-NH2 [Compound 79] | 0.2
Me-Y[Aib]EGTFISDYSI[Aib]LDRKAQ[Aib]NFVNWLLAQRPSSGAPPPS-NH2 (not fully specified (residues 1, 17)) [Compound 20] | 0.3
Me-Y[Aib]EGTFISDYSIALDR[Aib]AQ[Aib]KFVNWLLAQKG-OH (not fully specified (residues 1, 21)) [Compound 148] | 1.1
B3 | 0.1
Me-Y[Aib]EGTFISDYSIALDR[Aib]AQ[Aib]KFVNWLLAQKG-OH (not fully specified (residues 1, 21)) [Compound 143] | 0.4
B4 | 1.4
Y[Aib]EGTFISDYSI[Aib]KDR[Aib]AQ[Aib]NFVNWLLAQR-NH2 (not fully specified (residues 1, 14)) [Compound 59] | 0.4
Me-Y[Aib]EGTFISDYSI[Aib]LDR[Aib]AQ[Aib]NFVNWLLAQK([2OEG-γGlu-γGlu-C15 diacid])PSSGAPPPS-NH2 [Compound 21] | 0.3
Me-Y[Aib]EGTFISDYSIALDR[Aib]KQ[Aib]NFVNWLLAQSPSSGAPPPS-NH2 (not fully specified (residues 1, 18)) [Compound 144] | 0.1
[NMeY][Aib]EGTFISDYSI[Aib]LDR[Aib]AQ[Aib]K([Gly-Gly-Glu-Glu-Glu-C15 diacid])FVNWLLAQK-NH2 [Compound 113] | 0.4
[NMeY][Aib]EGTFISDYSI[Aib]KDR[Aib]AQ[Aib]NFVNWLLAQRPSSGAPPPS-NH2 (not fully specified (residue 14)) [Compound 120] | 0.4
Me-Y[Aib]EGTFISDYSI[Aib]K([AEEA-AEEA-γGlu-γGlu-C15 diacid])DR[Aib]AQ[Aib]NFVNWLLAQRPSSGAPPPS-NH2 [Compound 19] | 0.4
B5 | 0.4
